The values that follow come from article PMC9763339.

For this assay, the target named is RBM5-Myc (UniProt P52756).
UniProt P52756, sequence (P52756 whole entry): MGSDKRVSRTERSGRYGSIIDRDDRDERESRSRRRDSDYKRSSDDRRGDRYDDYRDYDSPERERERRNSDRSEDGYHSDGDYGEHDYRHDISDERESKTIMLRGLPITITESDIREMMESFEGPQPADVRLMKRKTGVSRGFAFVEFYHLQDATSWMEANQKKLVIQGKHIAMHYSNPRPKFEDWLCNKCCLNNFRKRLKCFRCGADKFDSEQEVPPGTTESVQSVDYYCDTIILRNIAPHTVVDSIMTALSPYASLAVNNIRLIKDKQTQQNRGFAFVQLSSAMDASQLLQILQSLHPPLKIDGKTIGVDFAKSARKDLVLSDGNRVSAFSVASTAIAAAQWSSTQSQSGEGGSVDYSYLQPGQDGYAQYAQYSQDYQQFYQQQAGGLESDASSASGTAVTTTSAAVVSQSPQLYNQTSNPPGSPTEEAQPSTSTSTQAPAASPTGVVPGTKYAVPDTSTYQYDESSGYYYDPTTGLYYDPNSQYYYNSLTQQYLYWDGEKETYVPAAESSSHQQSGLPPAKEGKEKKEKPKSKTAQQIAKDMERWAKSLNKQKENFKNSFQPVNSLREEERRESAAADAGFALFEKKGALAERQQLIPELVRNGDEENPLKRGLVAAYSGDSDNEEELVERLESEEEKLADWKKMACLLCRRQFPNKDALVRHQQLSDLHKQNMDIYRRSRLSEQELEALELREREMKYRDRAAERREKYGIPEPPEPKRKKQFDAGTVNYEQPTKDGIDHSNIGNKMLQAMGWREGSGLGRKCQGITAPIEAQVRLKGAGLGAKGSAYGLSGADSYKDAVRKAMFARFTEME

“InlP-HA (in HeLa cells) (natural protein)” gave a percentage of HeLa cells with aberrantly shaped nuclei (RBM5-induced cell death) when InlP is co-expressed with RBM5 of 13%.
